From patent US20150093336A1 (VIB VZW, published 2015) come the findings set out here.

Test [1] has as its target T1, Recombinant mouse MMR (R&D systems) (mouse, UniProt Q61830 20-1388).
T1 construct: Antigen of the PE-ELISA and the SPR; also called mMMR; recombinant mMMR
T1 sequence: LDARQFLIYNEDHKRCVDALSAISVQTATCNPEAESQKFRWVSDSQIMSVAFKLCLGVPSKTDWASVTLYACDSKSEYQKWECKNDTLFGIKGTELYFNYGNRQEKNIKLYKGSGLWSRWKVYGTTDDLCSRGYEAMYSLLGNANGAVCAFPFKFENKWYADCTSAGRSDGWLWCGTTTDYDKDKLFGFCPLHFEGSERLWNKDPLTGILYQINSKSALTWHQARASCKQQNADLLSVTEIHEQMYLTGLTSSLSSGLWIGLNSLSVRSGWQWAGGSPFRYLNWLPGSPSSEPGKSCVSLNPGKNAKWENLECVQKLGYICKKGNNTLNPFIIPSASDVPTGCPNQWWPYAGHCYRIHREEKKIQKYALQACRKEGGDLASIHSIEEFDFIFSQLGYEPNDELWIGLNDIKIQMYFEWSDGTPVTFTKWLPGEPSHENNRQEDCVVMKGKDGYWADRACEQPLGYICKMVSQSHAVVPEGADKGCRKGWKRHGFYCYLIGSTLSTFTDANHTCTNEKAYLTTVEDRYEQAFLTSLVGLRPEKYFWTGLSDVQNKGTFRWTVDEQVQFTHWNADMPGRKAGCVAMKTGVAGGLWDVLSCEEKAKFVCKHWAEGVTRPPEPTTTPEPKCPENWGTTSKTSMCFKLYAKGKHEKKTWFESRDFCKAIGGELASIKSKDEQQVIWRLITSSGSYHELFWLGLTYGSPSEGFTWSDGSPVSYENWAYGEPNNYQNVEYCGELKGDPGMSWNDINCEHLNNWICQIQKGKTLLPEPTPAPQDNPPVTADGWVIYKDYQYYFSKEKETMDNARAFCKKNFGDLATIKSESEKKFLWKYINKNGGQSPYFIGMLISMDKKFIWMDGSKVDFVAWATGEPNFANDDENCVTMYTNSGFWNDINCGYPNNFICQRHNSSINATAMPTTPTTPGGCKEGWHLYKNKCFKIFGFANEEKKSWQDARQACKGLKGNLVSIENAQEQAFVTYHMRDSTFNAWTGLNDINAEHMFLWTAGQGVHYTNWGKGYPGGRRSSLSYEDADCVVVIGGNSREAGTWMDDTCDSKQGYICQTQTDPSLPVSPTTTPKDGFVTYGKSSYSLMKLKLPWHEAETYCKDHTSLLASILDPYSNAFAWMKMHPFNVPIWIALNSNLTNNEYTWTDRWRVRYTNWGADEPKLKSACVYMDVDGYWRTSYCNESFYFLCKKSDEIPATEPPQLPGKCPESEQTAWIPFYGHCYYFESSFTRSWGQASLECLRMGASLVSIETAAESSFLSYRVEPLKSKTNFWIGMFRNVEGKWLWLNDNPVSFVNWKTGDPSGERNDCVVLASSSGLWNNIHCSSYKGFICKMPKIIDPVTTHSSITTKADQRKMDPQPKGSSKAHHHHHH
As to the kind of experiment: PE-ELISA: periplasmic extract of the clone on plate-coated mouse MMR, OD405; background = irrelevant milk-blocking proteins. The protocol:
(§1) Specific sdAb phages were enriched by several consecutive rounds of in vitro selection on antigen coated to wells of microtiter plates (Nunc). For isolation of human/mouse MMR cross-reactive Nbs, screening was performed using human and mouse MMR alternatingly. Bound phage particles were eluted with 100 mM triethylamine (pH 11.0), immediately neutralized with 1 M Tris-HCl (pH 7.4) and used to infect E. coli TG1 cells. Individual colonies were picked and expression of recombinant sdAb-M13 protein III by addition of 1 mM isopropyl-β-D-thiogalac-topyranoside (IPTG). The periplasmic extract of each clone was subsequently tested in ELISA for human MMR recognition with non-specific antigen coated wells serving as a negative control. Human/mouse MMR cross-reactive Nbs were also screened in a similar fashion against mouse MMR, only clones reactive with both human and mouse antigens were withheld as cross-reactive Nbs. Each ELISA was performed on plates coated with 1 μg/ml MMR in 100 mM NaHCO₃ buffer pH=8.8. After coating the plates are washed with PBS+0.05% TWEEN®-20 (PBST) and blocked for 2 hours with PBS+0.05% TWEEN® 20+2% non-fat dry milk powder (Nestle) (PBSM). The PE extracts are then incubated for 1 hour on the plate and then washed with PBST followed by 1 hour incubation of 0.5 μg/ml mouse anti-HA tag antibody (16B12, Covance) in PBSM. After washing with PBST, 1.5 μg/ml alkaline phosphatase conjugated anti-mouse antibody (Sigma) in PBSM in added to the plate for 1 hour followed by PBST washing. Finally, the ELISA is developed using 2 mg/ml alkaline phosphatase substrate (Sigma) in AP-buffer (100 mM NaCl, 50 mM MgCl₂, 100 mM Tris pH=9.5) and the optical density signal at 405 nm is measured.
(§2) Next, anti-human/mouse MMR cross-reactive sdAbs were generated (see also Material and Method section). The anti-human/anti mouse MMR phage bank was alternatingly screened on human and mouse MMR for a total of four rounds, resulting in up to 100-fold enrichments for hMMR/mMMR reactive phages from the second panning round. Therefore, 188 colonies from the second and third rounds were selected for PE-expression. These PE-extracts were used in PE-ELISAs to determine which clones react effectively to MMR, clones were selected after the ELISA on hMMR (FIG. 2). These clones were then screened for binding on mouse MMR (FIG. 3).
For orientation: An ELISA detects its analyte on a solid surface through an enzyme-linked reagent.

The target in test [2] is T2, Recombinant human MMR (R&D systems) (human, UniProt P22897 19-1383).
T2 construct: Antigen of the PE-ELISA and the SPR; also called hMMR; recombinant hMMR
T2 sequence: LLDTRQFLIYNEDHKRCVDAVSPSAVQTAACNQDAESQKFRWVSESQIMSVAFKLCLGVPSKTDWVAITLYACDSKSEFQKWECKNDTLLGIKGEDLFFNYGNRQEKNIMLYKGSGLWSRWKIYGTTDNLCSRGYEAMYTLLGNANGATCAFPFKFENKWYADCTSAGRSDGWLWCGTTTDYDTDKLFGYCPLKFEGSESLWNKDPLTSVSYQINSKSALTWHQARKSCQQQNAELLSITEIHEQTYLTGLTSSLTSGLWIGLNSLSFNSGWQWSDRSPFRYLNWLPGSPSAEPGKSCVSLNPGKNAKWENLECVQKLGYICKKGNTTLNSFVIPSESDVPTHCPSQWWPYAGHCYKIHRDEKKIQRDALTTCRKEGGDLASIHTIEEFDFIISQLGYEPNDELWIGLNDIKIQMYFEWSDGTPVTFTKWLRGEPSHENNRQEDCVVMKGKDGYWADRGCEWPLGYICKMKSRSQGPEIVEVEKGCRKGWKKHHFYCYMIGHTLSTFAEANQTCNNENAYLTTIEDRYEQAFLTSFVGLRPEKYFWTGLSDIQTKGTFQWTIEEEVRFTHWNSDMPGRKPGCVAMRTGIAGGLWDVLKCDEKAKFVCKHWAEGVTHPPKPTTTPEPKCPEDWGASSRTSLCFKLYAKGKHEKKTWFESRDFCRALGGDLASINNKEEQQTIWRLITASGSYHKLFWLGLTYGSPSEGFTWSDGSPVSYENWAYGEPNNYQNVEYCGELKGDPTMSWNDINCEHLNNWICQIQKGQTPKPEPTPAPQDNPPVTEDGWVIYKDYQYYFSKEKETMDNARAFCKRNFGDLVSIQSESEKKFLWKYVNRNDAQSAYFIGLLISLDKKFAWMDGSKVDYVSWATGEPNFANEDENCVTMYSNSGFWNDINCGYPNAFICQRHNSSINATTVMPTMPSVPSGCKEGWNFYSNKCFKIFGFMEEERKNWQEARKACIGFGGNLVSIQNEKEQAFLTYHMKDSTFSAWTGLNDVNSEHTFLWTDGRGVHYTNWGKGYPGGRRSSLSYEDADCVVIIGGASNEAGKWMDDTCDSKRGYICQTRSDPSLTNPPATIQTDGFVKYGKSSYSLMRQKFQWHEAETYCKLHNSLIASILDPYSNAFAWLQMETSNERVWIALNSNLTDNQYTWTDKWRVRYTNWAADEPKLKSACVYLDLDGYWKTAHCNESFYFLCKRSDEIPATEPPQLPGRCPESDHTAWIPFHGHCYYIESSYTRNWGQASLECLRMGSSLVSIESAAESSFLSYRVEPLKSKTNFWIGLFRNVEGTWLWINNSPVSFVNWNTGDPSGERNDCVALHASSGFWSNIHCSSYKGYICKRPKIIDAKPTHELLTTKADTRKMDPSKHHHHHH
As to the kind of experiment: PE-ELISA: periplasmic extract of the clone on plate-coated human MMR, OD405; background = irrelevant milk-blocking proteins. On the procedure:
as §1, §2

B1: NbhmMMRm27.95 (VHH)
VHH: QVQLQESGGRLGAAGGSLRLSCTASGFPFNIYPMSWVRQAPGKGFEWVSYISHGGTTTDYSDAVKGRFTISRDNAKNRLYLQMDSLKPEDTAVYFCAQGYARLMTDSELVRGQGTQVTVSS
notes: Only tested as periplasmic extract in PE-ELISA; clone carries C-terminal HA and 6xHis tag
As for B1, the binding result in test [1] and in test [2] was “binds” in each case.
